The values below come from patent US20200392230A1 (QLB BIOTHERAPEUTICS, published 2020).

For one experiment, the target named is T1, CD20 (UniProt P11836 1-297, limits assumed).
T1 construct: whole, on cells; also called CD20 on Raji cells; CD20 on Daudi cells
T1 sequence (looked up): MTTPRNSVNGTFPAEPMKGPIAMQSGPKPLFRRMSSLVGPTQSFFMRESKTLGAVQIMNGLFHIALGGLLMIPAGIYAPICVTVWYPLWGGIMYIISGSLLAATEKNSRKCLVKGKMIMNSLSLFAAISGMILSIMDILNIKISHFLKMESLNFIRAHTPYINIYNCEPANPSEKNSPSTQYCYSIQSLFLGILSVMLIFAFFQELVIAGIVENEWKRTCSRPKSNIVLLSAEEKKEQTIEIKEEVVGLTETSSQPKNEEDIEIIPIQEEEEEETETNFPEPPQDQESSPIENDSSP
Nature of the experiment: FACS, cell surface binding on Raji cells. On the procedure: (§1) After washing in phosphate buffered saline (PBS), fluorescence conjugated secondary antibodies were added to the cell mixture. The stained cells were analyzed in an LSR II FACS machine (BD Biosciences). Mean fluorescence intensity (MFI) was used to indicate the binding strength of the tested antibodies.
(In flow cytometry, cells or beads pass a laser one at a time.)

Another experiment deals with T2, CD3 (UniProt P07766 23-207).
T2 construct: whole, on cells; In the functional assays CD3 stood on engineered effector cells or on T cells of human PBMCs; also called CD3 on Jurkat cells; TCR/CD3 complex
T2 sequence (P07766 23-207): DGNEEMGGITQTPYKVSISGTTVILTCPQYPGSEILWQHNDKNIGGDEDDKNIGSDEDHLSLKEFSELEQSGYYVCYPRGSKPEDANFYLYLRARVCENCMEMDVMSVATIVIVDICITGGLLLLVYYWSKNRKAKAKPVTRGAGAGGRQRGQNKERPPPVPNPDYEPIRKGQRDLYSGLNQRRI
As to the kind of experiment: FACS, cell surface binding on Jurkat cells (CD3+), fluorescent secondary antibody, MFI. The procedure: as §1

B1: QLB1005-0001 (bispecific antibody)
chain 1: QAVVTQEPSLTVSPGGTVTLTCRSSTGAVTTSNYANWVQQKPGQAPRGLIGGTNKRAPGVPARFSGSLLGDKAALTLSGAQPEDEAEYYCALWYSNLWVFGTGTKVTVLGGGGSGGGGSGGGGSEVQLVESGGGLVQPGGSLKLSCAASGFTFNTYAMNWVRQASGKGLEWVARIRSKYNNYATYYADSVKDRFTISRDDSKNTLYLQMNSLKTEDTAVYYCVRHGNFGNSYVSWFAYWGQGTLVTVSSGGGGSASTKGPSVFPLAPSSKSTSGGTAALGCLVKDYFPEPVTVSWNSGALTSGVHTFPAVLQSSGLYELVSVVTVPSSSLGTQTYICNVNHKPSNTKVDKKVEPKSC
chain 2: QIVLTQSPATLSLSPGERATLSCRASSSVSYIHWFQQKPGQAPRPWIYATSNLASGVPARFSGSGSGTDYTLTISSLEPEDFAVYYCQQWTSNPPTFGQGTKVEIKGGGGSGGGGSGGGGSQVQLVQSGAEVKKPGASVKVSCKASGYTFTSYNMHWVRQAPGQGLEWIGAIYPGNGDTSYNQKFKGKATLTADKSTSTAYMELSSLRSEDTAVYYCARSTYYGGDWYFNVWGQGTLVTVSSGGGGSRTVAAPSVFIFPPSDEQLKSGTASVVCLLNNFYPREAKVQWKVDNALQSGNSQESVTEQDSKDSTYSLLSSLTLSKADYEKHKVYACEVTHQGLSSPVTKSFNRGEC
notes: NCI/NIH CH1-CK stabilized Fab format; the CH1 and CK domains form a heterodimer via a disulphide bond; also called anti-CD3×CD20 BsAb; Fab format (VL-VH-CH1/VL-VH-CK)
Consider B1, for which the binding result in the experiment with CD20 is “binds”.

B2: QLB1005-0002 (bispecific antibody, human IgG1)
chain 1: EVQLVESGGGLVQPGGSLKLSCAASGFTFNTYAMNWVRQASGKGLEWVARIRSKYNNYATYYADSVKDRFTISRDDSKNTLYLQMNSLKTEDTAVYYCVRHGNFGNSYVSWFAYWGQGTLVTVSSGGGGSGGGGSGGGGSQAVVTQEPSLTVSPGGTVTLTCRSSTGAVTTSNYANWVQQKPGQAPRGLIGGTNKRAPGVPARFSGSLLGDKAALTLSGAQPEDEAEYYCALWYSNLWVFGTGTKVTVLGGGGSGGGGSGGGGSPKSCDKTHTCPPCPAPEAAGGPSVFLFPPKPKDTLMISRTPEVTCVVVDVSHEDPEVKFNWYVDGVEVHNAKTKPREEQYNSTYRVVSVLTVLHQDWLNGKEYKCKVSNKALGAPIEKTISKAKGQPREPQVCTLPPSRDELTKNQVSLSCAVKGFYPSDIAVEWESNGQPENNYKTTPPVLDSDGSFFLVSKLTVDKSRWQQGNVFSCSVMHEALHNHYTQKSLSLSPGK
chain 2: not shown
notes: scFv-Fc format with Knob-in-Hole and L234A, L235A (LALA) mutations in a human IgG1 Fc; The text also prints the name as QLB1005-02000; also called QLB1005-02000; QLB-1005-02000
A word on the EC50: it is the concentration that produces a half-maximal response. A higher EC50 goes with weaker potency. For the molecule B2, in the experiment with CD3, the EC50 turned out to be 98.2 nM.

B3: QLB1005-0003 (bispecific antibody)
chain 1: EVQLVESGGGLVQPGGSLKLSCAASGFTFNTYAMNWVRQASGKGLEWVARIRSKYNNYATYYADSVKDRFTISRDDSKNTLYLQMNSLKTEDTAVYYCVRHGNFGNSYVSWFAYWGQGTLVTVSSGGGGSGGGGSGGGGSQAVVTQEPSLTVSPGGTVTLTCRSSTGAVTTSNYANWVQQKPGQAPRGLIGGTNKRAPGVPARFSGSLLGDKAALTLSGAQPEDEAEYYCALWYSNLWVFGTGTKVTVLGGGGSASTKGPSVFPLAPSSKSTSGGTAALGCLVKDYFPEPVTVSWNSGALTSGVHTFPAVLQSSGLYELVSVVTVPSSSLGTQTYICNVNHKPSNTKVDKKVEPKSC
chain 2: QVQLVQSGAEVKKPGASVKVSCKASGYTFTSYNMHWVRQAPGQGLEWIGAIYPGNGDTSYNQKFKGKATLTADKSTSTAYMELSSLRSEDTAVYYCARSTYYGGDWYFNVWGQGTLVTVSSGGGGSGGGGSGGGGSQIVLTQSPATLSLSPGERATLSCRASSSVSYIHWFQQKPGQAPRPWIYATSNLASGVPARFSGSGSGTDYTLTISSLEPEDFAVYYCQQWTSNPPTFGQGTKVEIKGGGGSRTVAAPSVFIFPPSDEQLKSGTASVVCLLNNFYPREAKVQWKVDNALQSGNSQESVTEQDSKDSTYSLLSSLTLSKADYEKHKVYACEVTHQGLSSPVTKSFNRGEC
notes: NCI/NIH CH1-CK stabilized Fab format; the CH1 and CK domains form a heterodimer via a disulphide bond; also called anti-CD3×CD20 BsAb; Fab format (VH-VL-CH1/VH-VL-CK)
Take B3: the binding result in the experiment with CD20 is recorded as “binds”.
